Source: the supplement of paper PMC10899765

Tests used:
Details in all cases: 20 nM; 72 h
[1] = tested on: MCF10A; test: percent viability (nuclei count relative to siNT); higher = more viable cells
Description: (§1)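 After 72 h, cells were fixed and stained with Hoechst and anti-fibrillarin, and nucleoli per nucleus were counted with CellProfiler. Values are plate-adjusted percent effect for the one-nucleolus and 5+ nucleoli phenotypes, normalised to siNT (0%) and to the positive controls siNOL11 or siKIF11 (100%), as the mean of biological triplicates. Percent viability is the nuclei count relative to siNT.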

[2] = tested on: MCF10A; test: 5+ nucleoli phenotype percent effect (relative to siNT 0% and siKIF11 100%); higher = more cells with five or more nucleoli
Description: as §1

[3] = tested on: MCF10A; test: one-nucleolus phenotype percent effect (relative to siNT 0% and siNOL11 100%); higher = more cells with one nucleolus (ribosome biogenesis inhibition)
Description: as §1

Sequence	percent viability [1]	5+ nucleoli phenotype percent effect [2]	one-nucleolus phenotype percent effect [3]
UGGGUGUAGGCUGGAGCUGAGG [hsa-miR-6772-5p]	17%	-8.54%	23.4%
UGGGUUCCUGGCAUGCUGAUUU [hsa-miR-23b-5p]	59.2%	1.4%	2.38%
UGGGUUUACGUUGGGAGAACU [hsa-miR-629-5p]	52.3%	-19.1%	17.7%
UGGUAGACUAUGGAACGUAGG [hsa-miR-379-5p]	31%	-21.8%	12.4%
UGGUAGAGCUGAGGACA [hsa-miR-4451]	16.3%	9.42%	-7.47%
UGGUCAGAGGCAGCAGGAAAUGA [hsa-miR-6801-5p]	54.5%	27.3%	-5.6%
UGGUCGACCAGUUGGAAAGUAAU [hsa-miR-412-5p]	46.8%	-1.85%	13.6%
UGGUCUAGGAUUGUUGGAGGAG [hsa-miR-601]	58.5%	-3.95%	22.9%
UGGUCUGUCUCUGCCCUGGCAC [hsa-miR-6753-3p]	21.6%	-4.31%	39.6%
UGGUCUGUUCAUUCUCUCUUUUUGGCC [hsa-miR-7107-3p]	15%	0.728%	13.2%
UGGUGCGGAGAGGGCCCACAGUG [hsa-miR-675-5p]	39%	-14%	29.5%
UGGUGGAGGAAGAGGGCAGCUC [hsa-miR-6880-5p]	3.74%	-19.7%	-4.17%
UGGUGGGCACAGAAUCUGGACU [hsa-miR-541-3p]	24.6%	-0.0057%	17.6%
UGGUGGGCCGCAGAACAUGUGC [hsa-miR-654-5p]	31.2%	-8.23%	20.4%
UGGUGGGUGGGGAGGAGAAGUGC [hsa-miR-6769b-5p]	18.8%	-22.4%	23.2%
UGGUGGUUUACAAAGUAAUUCA [hsa-miR-876-3p]	10.9%	-33.4%	57.7%
UGGUUCUCUUGUGGCUCAAGCGU [hsa-miR-597-3p]	22.4%	-23%	44.1%
UGGUUGACCAUAGAACAUGCGC [hsa-miR-380-5p]	17.6%	-0.352%	13.4%
UGGUUUACCGUCCCACAUACAU [hsa-miR-299-5p]	27.9%	-19.4%	24.1%
UGUAAACAUCCCCGACUGGAAG [hsa-miR-30d-5p]	62.7%	30.3%	0.554%

Sequence	percent viability [1]	5+ nucleoli phenotype percent effect [2]	one-nucleolus phenotype percent effect [3]
UGUAAACAUCCUACACUCAGCU [hsa-miR-30b-5p]	93%	34.3%	-9.57%
UGUAAACAUCCUACACUCUCAGC [hsa-miR-30c-5p]	69.4%	21.9%	3.37%
UGUAAACAUCCUCGACUGGAAG [hsa-miR-30a-5p]	47.2%	9.35%	-3.76%
UGUAAACAUCCUUGACUGGAAG [hsa-miR-30e-5p]	61.8%	36.3%	0.878%
UGUAACAGCAACUCCAUGUGGA [hsa-miR-194-5p]	84.3%	-7.22%	8.64%
UGUAGAGCAGGGAGCAGGAAGCU [hsa-miR-4732-5p]	23.8%	-0.0062%	6.48%
UGUAGAUACGAGCACCAGCCAC [hsa-miR-3935]	38.5%	20.9%	-7.2%
UGUAGGAACAGUUGAAUUUUGGCU [hsa-miR-8065]	58.9%	19.8%	-24.6%
UGUAGGCAUGAGGCAGGGCCCAGG [hsa-miR-6806-5p]	32.5%	44.5%	-16.3%
UGUAGUGUUUCCUACUUUAUGGA [hsa-miR-142-3p]	82.8%	-20%	23.4%
UGUAGUUGUAUUGUAUUGCCAC [hsa-miR-4703-3p]	40.8%	-29.5%	6.74%
UGUCACCCGCUCCUUGCCCAG [hsa-miR-6879-3p]	47.6%	-23.3%	3.65%
UGUCACUCGGCUCGGCCCACUAC [hsa-miR-668]	60.6%	-8.26%	-1.34%
UGUCAGUGACUCCUGCCCCUUGGU [hsa-miR-4697-3p]	98.6%	3.98%	-7.45%
UGUCAGUUUGUCAAAUACCCCA [hsa-miR-223-3p]	86.9%	7.19%	-4.68%
UGUCCUCUGUUCCUCAG [hsa-miR-6852-3p]	17.2%	9.01%	43.6%
UGUCGUGGGGCUUGCUGGCUUG [hsa-miR-4440]	58.9%	-27.6%	2.65%
UGUCUACAUUAAUGAAAAGAGC [hsa-miR-3618]	66.2%	-1.03%	16.7%
UGUCUACUACUGGAGACACUGG [hsa-miR-934]	37.1%	-13.1%	22.5%
UGUCUAUACUCUGUCACUUUAC [hsa-miR-4796-5p]	34.7%	-19.7%	45.9%

Sequence	percent viability [1]	5+ nucleoli phenotype percent effect [2]	one-nucleolus phenotype percent effect [3]
UGUCUCUCGCCCUUGGCCUUAG [hsa-miR-6895-3p]	19.4%	-32.5%	34.7%
UGUCUCUGCUGGGGUUUCU [hsa-miR-593-3p]	18.1%	-39.2%	55.4%
UGUCUGCCCGCAUGCCUGCCUCU [hsa-miR-346]	32.5%	-26.4%	31%
UGUCUUACUCCCUCAGGCACAU [hsa-miR-550a-3p]	60.2%	-24%	15.4%
UGUCUUCUCUCCUCCCAAACAG [hsa-miR-6740-3p]	9.9%	-27.6%	42.8%
UGUCUUGCAGGCCGUCAUGCA [hsa-miR-431-5p]	28.5%	-40.8%	53.9%
UGUCUUUCUUCUCUCCCUUGCAG [hsa-miR-6830-3p]	19.9%	-30.3%	58%
UGUGACAAUAGAGAUGAACAUG [hsa-miR-4504]	39.9%	-15.9%	30.4%
UGUGACAGAUUGAUAACUGAAA [hsa-miR-542-3p]	39.5%	-17.1%	65.1%
UGUGACCCUAGAAUAAUUAC [hsa-miR-7973]	29.4%	-4.82%	-2.95%
UGUGACUGCAUUAUGAAAAUUCU [hsa-miR-3118]	26.7%	5.27%	20.9%
UGUGACUGGUUGACCAGAGGGG [hsa-miR-134]	28%	-26.5%	31.9%
UGUGACUUCUCCCCUGCCACAG [hsa-miR-6820-3p]	32.3%	-7.76%	22.3%
UGUGACUUUAAGGGAAAUGGCG [hsa-miR-3164]	22.9%	22%	19.5%
UGUGAGGUUGGCAUUGUUGUCU [hsa-miR-1294]	28.9%	-10.7%	19%
UGUGAUAUCAUGGUUCCUGGGA [hsa-miR-3689a-5p]	37.9%	-5.22%	6.87%
UGUGAUAUCAUGGUUCCUGGGA [hsa-miR-3689b-5p]	23.6%	-25.9%	19%
UGUGAUAUCAUGGUUCCUGGGA [hsa-miR-3689e]	30.9%	-30.6%	4.57%
UGUGAUAUCGUGCUUCCUGGGA [hsa-miR-3689f]	109%	17.5%	-21.8%
